Test results as given in paper doi:10.1101/322701 (bioRxiv, 2018).

Tests used:
Assay in all cases: BLI
[1] = target: Biotinylated NH-GrgA (Chlamydia trachomatis) (UniProt O84512)
[2] = target: NH-GrgAΔ1-64 (Chlamydia trachomatis) (UniProt O84512)
[3] = target: N-terminally His-tagged GrgA, full length (Chlamydia trachomatis) (UniProt O84512)
[4] = target: N-terminally poly-His-tagged C. trachomatis σ^28 (C. trachomatis)
CH-σ^66 = target: T1, CH-σ^66 (C. trachomatis, UniProt P18333 1-571)
T1 sequence (looked up): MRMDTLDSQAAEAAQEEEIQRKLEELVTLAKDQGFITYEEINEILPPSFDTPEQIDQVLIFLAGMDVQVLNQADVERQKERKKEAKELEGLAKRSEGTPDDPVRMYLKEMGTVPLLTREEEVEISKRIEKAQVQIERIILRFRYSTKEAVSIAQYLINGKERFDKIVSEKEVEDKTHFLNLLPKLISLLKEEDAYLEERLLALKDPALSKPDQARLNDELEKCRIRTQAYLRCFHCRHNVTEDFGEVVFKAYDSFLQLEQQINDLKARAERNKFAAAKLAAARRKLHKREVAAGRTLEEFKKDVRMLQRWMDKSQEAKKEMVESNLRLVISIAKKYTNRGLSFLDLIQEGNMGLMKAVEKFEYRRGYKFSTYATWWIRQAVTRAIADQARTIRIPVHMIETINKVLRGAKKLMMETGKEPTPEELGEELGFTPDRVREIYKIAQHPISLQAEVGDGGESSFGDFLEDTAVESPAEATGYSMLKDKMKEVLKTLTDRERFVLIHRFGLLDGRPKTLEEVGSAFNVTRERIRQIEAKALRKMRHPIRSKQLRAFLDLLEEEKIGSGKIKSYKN

[5] = target: T2, N-terminally His-tagged GrgA, full length (Chlamydia trachomatis, UniProt O84512 1-288)
T2 sequence (looked up): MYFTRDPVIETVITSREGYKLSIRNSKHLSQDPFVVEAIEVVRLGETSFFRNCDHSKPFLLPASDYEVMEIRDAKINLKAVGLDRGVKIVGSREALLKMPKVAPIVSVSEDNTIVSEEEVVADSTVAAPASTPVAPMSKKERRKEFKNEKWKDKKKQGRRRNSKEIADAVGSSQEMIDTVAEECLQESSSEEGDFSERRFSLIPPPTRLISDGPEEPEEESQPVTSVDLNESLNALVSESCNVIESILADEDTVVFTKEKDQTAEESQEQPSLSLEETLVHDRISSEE

N-terminally poly-His-tagged C. trachomatis σ^28 (C. trachomatis), sequence (B0B8K1 whole entry): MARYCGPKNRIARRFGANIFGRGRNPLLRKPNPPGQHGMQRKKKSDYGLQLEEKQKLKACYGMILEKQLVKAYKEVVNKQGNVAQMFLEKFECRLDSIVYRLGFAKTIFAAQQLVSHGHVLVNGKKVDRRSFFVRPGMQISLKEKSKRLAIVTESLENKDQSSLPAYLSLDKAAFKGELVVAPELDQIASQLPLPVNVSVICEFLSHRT

Question: How did the fold higher KD than full length NH-σ^28 [1] turn out when NH-σ^28ΔR3 (natural protein) was run?
Answer: The fold higher KD than full length NH-σ^28 was 7 fold.

Question: And the fold increase in ka against full length NH-σ^28 [1]?
Answer: The fold increase in ka against full length NH-σ^28 was 3.5 fold.

Question: How did the fold higher KD than full length NH-σ^28 [1] turn out when NH-σ^28ΔR2 (natural protein) was run?
Answer: Its fold higher KD than full length NH-σ^28 is 177 fold.

Question: And the fold reduction in ka against full length NH-σ^28 [1]?
Answer: Its fold reduction in ka against full length NH-σ^28 is 2 fold.

Question: Which results are given for NH-σ^28ΔR4 (natural protein)?
Answer: fold higher KD than full length NH-σ^28 [1]: 7 fold; percent increase in ka against full length NH-σ^28 [1]: 50%

Question: For “N-terminally strep-tagged σ^28 (natural protein)”, which fold decrease in ka against full length NH-GrgA [2] is on record?
Answer: Its fold decrease in ka against full length NH-GrgA is 3 fold.

Question: What about the fold increase in KD against full length NH-GrgA [2] of the same molecule?
Answer: Its fold increase in KD against full length NH-GrgA is 4.8 fold.

Question: What about the fold increase in kd against full length NH-GrgA [2] of the same molecule?
Answer: The fold increase in kd against full length NH-GrgA was 2 fold.

Question: What about the fold higher KD than the NH-GrgA-CS-σ^66 interaction [3] of the same molecule?
Answer: The fold higher KD than the NH-GrgA-CS-σ^66 interaction was 32 fold.

Question: With NH-σ^28ΔNL (domain or fragment) as the molecule, how does the fold higher KD than full length NH-σ^28 [1] read?
Answer: The fold higher KD than full length NH-σ^28 was 345 fold.

B1: N-terminally strep-tagged GrgA (natural protein, Chlamydia trachomatis, UniProt O84512 1-288, looked up)
chain: MYFTRDPVIETVITSREGYKLSIRNSKHLSQDPFVVEAIEVVRLGETSFFRNCDHSKPFLLPASDYEVMEIRDAKINLKAVGLDRGVKIVGSREALLKMPKVAPIVSVSEDNTIVSEEEVVADSTVAAPASTPVAPMSKKERRKEFKNEKWKDKKKQGRRRNSKEIADAVGSSQEMIDTVAEECLQESSSEEGDFSERRFSLIPPPTRLISDGPEEPEEESQPVTSVDLNESLNALVSESCNVIESILADEDTVVFTKEKDQTAEESQEQPSLSLEETLVHDRISSEE
Question: How did the fold higher KD than the CH-σ^66-NS-GrgA interaction [4] turn out when B1 was run?
Answer: The fold higher KD than the CH-σ^66-NS-GrgA interaction was 28 fold.

Question: And the “fold higher ka than for NH-σ^28 as ligand” value (CH-σ^66)?
Answer: Its value is 3.7 fold.

Question: What about the “fold slower dissociation (kd) than from NH-σ^28” value (CH-σ^66) of the same molecule?
Answer: Its value is 6 fold.

B2: CS-σ^66 (natural protein, C. trachomatis, UniProt P18333 1-571, looked up)
chain: MRMDTLDSQAAEAAQEEEIQRKLEELVTLAKDQGFITYEEINEILPPSFDTPEQIDQVLIFLAGMDVQVLNQADVERQKERKKEAKELEGLAKRSEGTPDDPVRMYLKEMGTVPLLTREEEVEISKRIEKAQVQIERIILRFRYSTKEAVSIAQYLINGKERFDKIVSEKEVEDKTHFLNLLPKLISLLKEEDAYLEERLLALKDPALSKPDQARLNDELEKCRIRTQAYLRCFHCRHNVTEDFGEVVFKAYDSFLQLEQQINDLKARAERNKFAAAKLAAARRKLHKREVAAGRTLEEFKKDVRMLQRWMDKSQEAKKEMVESNLRLVISIAKKYTNRGLSFLDLIQEGNMGLMKAVEKFEYRRGYKFSTYATWWIRQAVTRAIADQARTIRIPVHMIETINKVLRGAKKLMMETGKEPTPEELGEELGFTPDRVREIYKIAQHPISLQAEVGDGGESSFGDFLEDTAVESPAEATGYSMLKDKMKEVLKTLTDRERFVLIHRFGLLDGRPKTLEEVGSAFNVTRERIRQIEAKALRKMRHPIRSKQLRAFLDLLEEEKIGSGKIKSYKN
Question: What does the source list for B2?
Answer: fold higher ka than the NS-σ^28 analyte on NH-GrgA [5]: 25 fold; fold increase in kd over the NS-σ^28 analyte on NH-GrgA [5]: 3 fold
